Data reported in the supplement of paper PMC10724198.
± gives the standard deviation of the averaged measurements.

Assays:
[1] = test system: Saccharomyces cerevisiae; assay: protein stability index of tFT-peptide fusion (C-terminal peptide) (PSI (0-1 scale)); higher = more stable (slower turnover)
Procedure: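 MPS profiling in S. cerevisiae of the tFT-X12 degron library: putative degron peptides plus stable controls, 12 aa, fused to the C-terminus of a sfGFP-mCherry timer. Cells are FACS-sorted into 8 mCherry/sfGFP bins and deep-sequenced. PSI runs from 0 (unstable) to 1 (stable). Backgrounds are wild type, das1Δ and doa10Δ at 30 °C, and wild type, das1Δ, cdc34-1 and cdc53-1 at 37 °C; 2-3 technical replicates each.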

[2] = test system: Saccharomyces cerevisiae; assay: as above; conditions: genetic background: wild type; temperature: 30 C
[3] = genetic background: cdc34-1, temperature: 37 C
[4] = genetic background: cdc53-1, temperature: 37 C
[5] = genetic background: das1 deletion, temperature: 30 C
[6] = genetic background: das1 deletion, temperature: 37 C
[7] = genetic background: doa10 deletion, temperature: 30 C
[8] = genetic background: wild type, temperature: 30 C
[9] = genetic background: wild type, temperature: 37 C
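Further: PSI is a weighted mean of sequencing reads over stability bins, variants kept only with over 10 reads, mCherry proximal and sfGFP distal, peptide attached via GGGS linker.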

| Sequence | protein stability index [1, 3] | protein stability index [1, 4] | protein stability index [1, 5] | protein stability index [1, 6] | protein stability index [1, 7] | protein stability index [1, 8] | protein stability index [1, 9] | protein stability index [2] |
| --- | --- | --- | --- | --- | --- | --- | --- | --- |
| VFCCHSSRFVFA | 0.642 ± 0.027 | 0.6789 ± 0.0065 | 0.525 ± 0.025 | 0.6858 ± 0.0031 | 0.49 ± 0.016 | 0.501 ± 0.028 | 0.623 ± 0.019 | 0.414 ± 0.022 |
| VFCFCRFHFFCA | 0.621 ± 0.066 | 0.649 ± 0.0077 | 0.496 ± 0.025 | 0.631 ± 0.026 | 0.432 ± 0.019 | 0.453 ± 0.02 | 0.563 ± 0.018 | 0.484 ± 0.026 |
| VFFFVSFFAFSS | 0.213 ± 0.0054 | 0.3558 ± 0.0034 | 0.22 ± 0.029 | 0.406 ± 0.0024 | 0.172 ± 0.016 | 0.179 ± 0.04 | 0.3544 ± 0.0014 | 0.288 ± 0.053 |
| VFFLSFIFRFFL | 0.594 ± 0.022 | 0.558 ± 0.02 | 0.508 ± 0.035 | 0.547 ± 0.013 | 0.482 ± 0.021 | 0.454 ± 0.0048 | 0.55 ± 0.087 | 0.532 ± 0.048 |
| VFFPCRLLPLLF | 0.517 ± 0.0066 | 0.585 ± 0.0073 | 0.479 ± 0.03 | 0.595 ± 0.026 | 0.1658 ± 0.0011 | 0.167 ± 0.014 | 0.286 ± 0.01 | 0.27 ± 0.023 |
| VFFRVLVAGCRQ | 0.537 ± 0.04 | 0.618 ± 0.021 | 0.451 ± 0.022 | 0.5761 ± 0.0052 | 0.449 ± 0.0066 | 0.468 ± 0.0052 | 0.568 ± 0.028 | 0.522 ± 0.084 |
| VFGCHHLEVSVC | 0.248 ± 0.012 | 0.267 ± 0.0036 | 0.259 ± 0.034 | 0.377 ± 0.0065 | 0.203 ± 0.012 | 0.241 ± 0.024 | 0.34 ± 0.012 | 0.34 ± 0.0065 |
| VFGVWVVVGCVG | 0.028 ± 0.007 | 0.101 ± 0.03 | 0.149 ± 0.037 | 0.215 ± 0.01 | 0.123 ± 0.019 | 0.143 ± 0.013 | 0.197 ± 0.013 | 0.248 ± 0.0043 |
| VFRECSFFLVCC | 0.255 ± 0.0076 | 0.287 ± 0.011 | 0.281 ± 0.026 | 0.366 ± 0.0094 | 0.224 ± 0.0033 | 0.252 ± 0.032 | 0.315 ± 0.016 | 0.333 ± 0.036 |
| VFRHFYTFLALC | 0.338 ± 0.043 | 0.414 ± 0.013 | 0.472 ± 0.014 | 0.5932 ± 0.0029 | 0.111 ± 0.0013 | 0.0988 ± 0.017 | 0.132 ± 0.018 | 0.16 ± 0.0087 |
| VFTGYSAFLLLC | 0.325 ± 0.011 | 0.578 ± 0.025 | 0.487 ± 0.025 | 0.6366 ± 0.0041 | 0.0796 ± 0.016 | 0.0748 ± 0.014 | 0.0721 ± 0.0049 | 0.144 ± 0.011 |
| VGASLVVIAIGV | 0.5122 ± 0.0012 | 0.5401 ± 0.0048 | 0.377 ± 0.034 | 0.5445 ± 0.0033 | 0.3442 ± 0.0029 | 0.387 ± 0.012 | 0.5181 ± 0.0048 | 0.466 ± 0.032 |
| VGKGAGVRDGSR | 0.693 ± 0.068 | 0.751 ± 0.019 | 0.623 ± 0.0077 | 0.7598 ± 0.0072 | 0.651 ± 0.017 | 0.645 ± 0.011 | 0.713 ± 0.016 | 0.707 ± 0.026 |
| VGLLFGWVWSLW | 0.644 ± 0.02 | 0.72401 ± 0.00029 | 0.56 ± 0.026 | 0.6999 ± 0.0055 | 0.5556 ± 0.0007 | 0.545 ± 0.0096 | 0.674 ± 0.015 | 0.485 ± 0.021 |
| VGLWFLCSLAFS | 0.444 ± 0.0079 | 0.478 ± 0.015 | 0.34 ± 0.037 | 0.5344 ± 0.0014 | 0.308 ± 0.015 | 0.346 ± 0.023 | 0.495 ± 0.007 | 0.401 ± 0.006 |
| VGYSLFTFLFCA | 0.579 ± 0.014 | 0.6313 ± 0.0052 | 0.481 ± 0.03 | 0.6315 ± 0.0016 | 0.303 ± 0.011 | 0.335 ± 0.017 | 0.51 ± 0.027 | 0.432 ± 0.0057 |
| VIQKKKKNKITS | 0.617 ± 0.004 | 0.729 ± 0.014 | 0.65 ± 0.022 | 0.7265 ± 0.0018 | 0.197 ± 0.011 | 0.238 ± 0.013 | 0.408 ± 0.016 | 0.346 ± 0.033 |
| VIVIQGFVFVLG | 0.2898 ± 0.0021 | 0.426 ± 0.033 | 0.267 ± 0.033 | 0.482 ± 0.0059 | 0.234 ± 0.0035 | 0.248 ± 0.035 | 0.421 ± 0.0092 | 0.279 ± 0.073 |
| VLFSVWFFLVLV | 0.0557 ± 0.017 | 0.0354 ± 0.0069 | 0.122 ± 0.032 | 0.134 ± 0.0075 | 0.241 ± 0.015 | 0.103 ± 0.035 | 0.127 ± 0.04 | 0.117 ± 0.017 |
| VLVLLVCVAALV | 0.1393 ± 0.00032 | 0.222 ± 0.0053 | 0.163 ± 0.023 | 0.295 ± 0.017 | 0.1463 ± 0.00088 | 0.163 ± 0.025 | 0.244 ± 0.014 | 0.239 ± 0.0026 |

| Sequence | protein stability index [1, 3] | protein stability index [1, 4] | protein stability index [1, 5] | protein stability index [1, 6] | protein stability index [1, 7] | protein stability index [1, 8] | protein stability index [1, 9] | protein stability index [2] |
| --- | --- | --- | --- | --- | --- | --- | --- | --- |
| VLVRVIYLLVSG | 0.276 ± 0.007 | 0.373 ± 0.013 | 0.23 ± 0.038 | 0.469 ± 0.0053 | 0.178 ± 0.026 | 0.234 ± 0.029 | 0.404 ± 0.017 | 0.347 ± 0.02 |
| VLVWLRLRVGLR | 0.212 ± 0.025 | 0.322 ± 0.016 | 0.218 ± 0.045 | 0.381 ± 0.0098 | 0.199 ± 0.0058 | 0.213 ± 0.021 | 0.3468 ± 0.0019 | 0.3002 ± 0.00052 |
| VLYCRSCFLRVS | 0.543 ± 0.021 | 0.584 ± 0.015 | 0.436 ± 0.024 | 0.6292 ± 0.0028 | 0.1667 ± 0.0015 | 0.161 ± 0.0061 | 0.362 ± 0.023 | 0.281 ± 0.021 |
| VMIFYVLGRVWD | 0.428 ± 0.0048 | 0.5209 ± 0.0028 | 0.293 ± 0.056 | 0.594 ± 0.025 | 0.27 ± 0.0079 | 0.314 ± 0.033 | 0.581 ± 0.082 | 0.455 ± 0.0091 |
| VNFVLTLYPYLV | 0.512 ± 0.024 | 0.577 ± 0.019 | 0.507 ± 0.024 | 0.603 ± 0.02 | 0.275 ± 0.016 | 0.278 ± 0.02 | 0.4472 ± 0.00073 | 0.378 ± 0.014 |
| VPPLPPPGPPTF | 0.705 ± 0.0084 | 0.7583 ± 0.0011 | 0.667 ± 0.012 | 0.733 ± 0.014 | 0.683 ± 0.029 | 0.6765 ± 0.0056 | 0.708 ± 0.011 | 0.699 ± 0.015 |
| VQLLTRLKTPHP | 0.6608 ± 0.0013 | 0.7443 ± 0.0035 | 0.656 ± 0.016 | 0.719 ± 0.015 | 0.636 ± 0.021 | 0.65 ± 0.024 | 0.716 ± 0.021 | 0.733 ± 0.026 |
| VRDQGWILNMLL | 0.7266 ± 0.007 | 0.771 ± 0.024 | 0.651 ± 0.032 | 0.7546 ± 0.0011 | 0.3707 ± 0.0019 | 0.422 ± 0.028 | 0.639 ± 0.023 | 0.485 ± 0.016 |
| VRICVVLRVCWW | 0.0855 ± 0.0017 | 0.139 ± 0.00094 | 0.115 ± 0.034 | 0.217 ± 0.0071 | 0.117 ± 0.034 | 0.12 ± 0.024 | 0.18 ± 0.0089 | 0.256 ± 0.092 |
| VRINLLFVWFSR | 0.407 ± 0.0067 | 0.472 ± 0.028 | 0.331 ± 0.044 | 0.491 ± 0.012 | 0.359 ± 0.016 | 0.334 ± 0.04 | 0.464 ± 0.033 | 0.396 ± 0.026 |
| VRLSQVNRLICT | 0.554 ± 0.022 | 0.566 ± 0.065 | 0.437 ± 0.024 | 0.585 ± 0.021 | 0.394 ± 0.019 | 0.426 ± 0.0098 | 0.573 ± 0.017 | 0.524 ± 0.052 |
| VRRGAVWCCLCG | 0.666 ± 0.0079 | 0.73 ± 0.0094 | 0.623 ± 0.012 | 0.748 ± 0.004 | 0.368 ± 0.017 | 0.405 ± 0.014 | 0.633 ± 0.0059 | 0.474 ± 0.011 |
| VRVLAALVLCVV | 0.159 ± 0.029 | 0.306 ± 0.021 | 0.217 ± 0.019 | 0.3799 ± 0.00079 | 0.156 ± 0.0081 | 0.189 ± 0.011 | 0.322 ± 0.011 | 0.312 ± 0.0089 |
| VRYCFFWVRAVV | 0.286 ± 0.027 | 0.335 ± 0.019 | 0.233 ± 0.04 | 0.4555 ± 0.0013 | 0.173 ± 0.0088 | 0.194 ± 0.022 | 0.3718 ± 0.0019 | 0.278 ± 0.051 |
| VTGYLSTLTMLC | 0.6 ± 0.015 | 0.654 ± 0.0097 | 0.551 ± 0.02 | 0.671 ± 0.023 | 0.231 ± 0.0097 | 0.247 ± 0.03 | 0.5014 ± 0.0011 | 0.3832 ± 0.0015 |
| VTWNFIVYVCCF | 0.164 ± 0.0058 | 0.204 ± 0.0029 | 0.209 ± 0.016 | 0.25776 ± 1.6e-05 | 0.189 ± 0.017 | 0.19 ± 0.014 | 0.219 ± 0.0045 | 0.283 ± 0.011 |
| VVFLWRCRLLLG | 0.276 ± 0.015 | 0.346 ± 0.015 | 0.213 ± 0.034 | 0.416 ± 0.0042 | 0.0938 ± 0.011 | 0.115 ± 0.027 | 0.154 ± 0.0056 | 0.164 ± 0.019 |
| VVFRCSSFFCLV | 0.54 ± 0.0062 | 0.6156 ± 0.006 | 0.524 ± 0.029 | 0.622 ± 0.015 | 0.387 ± 0.033 | 0.405 ± 0.035 | 0.536 ± 0.0083 | 0.4449 ± 0.002 |
| VVIYWFLPIIFA | 0.09487 ± 0.00071 | 0.0751 ± 0.015 | 0.163 ± 0.032 | 0.253 ± 0.018 | 0.266 ± 0.006 | 0.155 ± 0.021 | 0.224 ± 0.013 | 0.23 ± 0.029 |
